Test results reported in IntAct's records for PubMed 10918185.

B1: Tumor necrosis factor receptor superfamily member 6 (Homo sapiens), P25445 (parent)
chain: MLGIWTLLPLVLTSVARLSSKSVNAQVTDINSKGLELRKTVTTVETQNLEGLHHDGQFCHKPCPPGERKARDCTVNGDEPDCVPCQEGKEYTDKAHFSSKCRRCRLCDEGHGLEVEINCTRTQNTKCRCKPNFFCNSTVCEHCDPCTKCEHGIIKECTLTSNTKCKEEGSRSNLGWLCLLLLPIPLIVWVKRKEVQKTCRKHRKENQGSHESPTLNPETVAINLSDVDLSKYITTIAGVMTLSQVKGFVRKNGVNEAKIDEIKNDNVQDTAEQKVQLLRNWHQLHGKKEAYDTLIKDLKKANLCTLAEKIQTIILKDITSDSENSNFRNEIQSLV

Variants of: B1
Conditions: with ptn13_human PTPN13, Q12923
Chain of ptn13_human PTPN13, Q12923 (Q12923 whole entry): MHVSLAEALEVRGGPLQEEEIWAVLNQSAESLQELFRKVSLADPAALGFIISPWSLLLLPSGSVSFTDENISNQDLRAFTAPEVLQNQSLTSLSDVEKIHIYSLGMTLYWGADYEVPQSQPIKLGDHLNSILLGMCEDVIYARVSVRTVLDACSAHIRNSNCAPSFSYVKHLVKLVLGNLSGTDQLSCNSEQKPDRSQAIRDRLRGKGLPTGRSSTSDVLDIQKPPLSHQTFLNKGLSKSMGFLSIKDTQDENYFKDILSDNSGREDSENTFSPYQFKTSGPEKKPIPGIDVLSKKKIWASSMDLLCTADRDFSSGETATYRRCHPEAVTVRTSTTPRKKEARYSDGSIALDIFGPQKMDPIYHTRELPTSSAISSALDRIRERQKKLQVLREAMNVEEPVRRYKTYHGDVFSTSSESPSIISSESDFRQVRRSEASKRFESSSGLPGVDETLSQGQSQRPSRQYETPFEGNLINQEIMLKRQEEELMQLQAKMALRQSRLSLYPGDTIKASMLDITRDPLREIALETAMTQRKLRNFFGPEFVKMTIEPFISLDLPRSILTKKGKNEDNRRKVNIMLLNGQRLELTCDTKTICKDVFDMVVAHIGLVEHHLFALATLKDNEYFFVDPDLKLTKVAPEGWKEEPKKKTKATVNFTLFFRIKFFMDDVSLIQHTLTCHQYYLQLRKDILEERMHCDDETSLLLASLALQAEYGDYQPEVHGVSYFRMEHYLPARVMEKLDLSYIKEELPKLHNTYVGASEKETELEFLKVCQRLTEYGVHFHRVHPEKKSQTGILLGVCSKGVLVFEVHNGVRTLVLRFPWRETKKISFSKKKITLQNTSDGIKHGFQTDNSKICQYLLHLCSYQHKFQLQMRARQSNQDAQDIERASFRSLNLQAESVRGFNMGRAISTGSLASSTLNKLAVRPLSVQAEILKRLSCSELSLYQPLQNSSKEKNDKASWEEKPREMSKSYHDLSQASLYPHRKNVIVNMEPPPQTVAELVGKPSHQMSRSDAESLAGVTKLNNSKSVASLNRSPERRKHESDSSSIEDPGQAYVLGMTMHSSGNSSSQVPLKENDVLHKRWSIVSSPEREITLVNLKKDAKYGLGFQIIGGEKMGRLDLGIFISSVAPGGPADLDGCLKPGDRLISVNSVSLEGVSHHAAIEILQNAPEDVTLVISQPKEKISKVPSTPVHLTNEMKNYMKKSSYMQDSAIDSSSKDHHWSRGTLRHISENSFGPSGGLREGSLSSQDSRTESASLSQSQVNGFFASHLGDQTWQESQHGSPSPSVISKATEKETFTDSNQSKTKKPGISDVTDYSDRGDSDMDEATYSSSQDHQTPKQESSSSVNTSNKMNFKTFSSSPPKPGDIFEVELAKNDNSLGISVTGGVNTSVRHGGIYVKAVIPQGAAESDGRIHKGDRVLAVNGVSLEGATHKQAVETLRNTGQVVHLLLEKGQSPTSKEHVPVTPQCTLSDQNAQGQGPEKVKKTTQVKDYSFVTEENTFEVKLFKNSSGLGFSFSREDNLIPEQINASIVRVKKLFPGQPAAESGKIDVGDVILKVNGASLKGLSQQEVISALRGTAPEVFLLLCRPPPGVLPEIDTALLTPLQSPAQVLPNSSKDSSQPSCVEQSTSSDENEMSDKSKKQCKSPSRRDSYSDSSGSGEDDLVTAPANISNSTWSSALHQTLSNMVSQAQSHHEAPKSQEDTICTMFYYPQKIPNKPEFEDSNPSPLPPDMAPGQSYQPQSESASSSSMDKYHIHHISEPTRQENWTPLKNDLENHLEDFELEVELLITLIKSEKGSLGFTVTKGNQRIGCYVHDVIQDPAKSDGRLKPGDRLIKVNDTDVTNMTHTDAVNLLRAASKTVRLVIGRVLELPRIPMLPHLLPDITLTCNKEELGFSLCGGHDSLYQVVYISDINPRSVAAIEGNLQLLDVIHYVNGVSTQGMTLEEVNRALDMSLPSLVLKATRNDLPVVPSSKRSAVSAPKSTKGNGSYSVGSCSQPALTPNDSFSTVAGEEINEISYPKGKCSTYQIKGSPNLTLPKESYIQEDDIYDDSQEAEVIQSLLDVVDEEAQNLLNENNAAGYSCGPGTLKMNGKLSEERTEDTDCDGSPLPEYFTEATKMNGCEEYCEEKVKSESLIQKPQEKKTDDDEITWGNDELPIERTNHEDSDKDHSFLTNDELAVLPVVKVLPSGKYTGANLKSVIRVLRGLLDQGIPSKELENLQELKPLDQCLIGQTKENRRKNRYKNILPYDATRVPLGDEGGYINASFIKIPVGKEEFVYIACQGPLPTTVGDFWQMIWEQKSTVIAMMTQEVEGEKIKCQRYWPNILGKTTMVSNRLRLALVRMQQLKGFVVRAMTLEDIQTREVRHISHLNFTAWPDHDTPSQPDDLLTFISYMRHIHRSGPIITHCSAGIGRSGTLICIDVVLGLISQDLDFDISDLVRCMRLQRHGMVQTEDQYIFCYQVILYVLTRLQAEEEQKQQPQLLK

| effect of a mutation on the interaction | Variant |
| --- | --- |
| decreasing interaction | S333P |
